One substance from PMC5814221 can be followed below.

This experiment concerns the target Growth arrest-specific protein 6 (GAS6) (UniProt Q63772).
Sequence of UniProt Q63772 (Q63772 28-674): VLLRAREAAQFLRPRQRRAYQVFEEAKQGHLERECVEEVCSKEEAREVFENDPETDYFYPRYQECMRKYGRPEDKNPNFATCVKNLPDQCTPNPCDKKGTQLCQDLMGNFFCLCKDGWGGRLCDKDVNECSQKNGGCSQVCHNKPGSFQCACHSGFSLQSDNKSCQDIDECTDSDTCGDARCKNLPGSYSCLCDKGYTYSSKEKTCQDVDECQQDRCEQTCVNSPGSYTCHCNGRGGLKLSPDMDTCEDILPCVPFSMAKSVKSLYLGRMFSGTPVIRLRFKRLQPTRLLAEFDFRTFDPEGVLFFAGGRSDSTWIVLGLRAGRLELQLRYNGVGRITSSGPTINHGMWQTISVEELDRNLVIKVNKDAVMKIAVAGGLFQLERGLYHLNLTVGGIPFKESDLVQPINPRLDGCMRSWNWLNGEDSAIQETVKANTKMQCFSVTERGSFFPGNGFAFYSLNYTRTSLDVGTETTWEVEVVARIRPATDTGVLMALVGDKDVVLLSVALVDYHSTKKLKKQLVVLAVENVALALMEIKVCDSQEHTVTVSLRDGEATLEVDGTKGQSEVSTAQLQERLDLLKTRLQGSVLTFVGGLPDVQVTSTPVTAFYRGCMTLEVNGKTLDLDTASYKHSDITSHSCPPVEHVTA

In the case of “AXL-Fc protein fragment (soluble form of AXL) (Fc fusion)”, the proliferation of RSC96 cells (WST-1) treated with AXL-Fc, percent decrease after 24 h, 48 h and 72 h (31.3%, 35.1%, 43.1%) worked out at 43.1 % decreased.
